Results on 2 molecules are retold here after publication PMC12533369, “Citrullination of AKT2 Catalyzed by PAD1 Facilitates the Maintenance of Stemness Characteristics of Ovarian Cancer Stem‐Like Cells in Ovarian Cancer” (Advanced Science, 2025).

The target in the assay is T1, GST-tagged PAD1 (human, UniProt Q9ULC6 1-663).
T1 construct: peptidylarginine deiminase 1 (PAD1), recombinant human; also called GST-PAD1; recombinant human PAD1; source: recombinant
T1 sequence (looked up): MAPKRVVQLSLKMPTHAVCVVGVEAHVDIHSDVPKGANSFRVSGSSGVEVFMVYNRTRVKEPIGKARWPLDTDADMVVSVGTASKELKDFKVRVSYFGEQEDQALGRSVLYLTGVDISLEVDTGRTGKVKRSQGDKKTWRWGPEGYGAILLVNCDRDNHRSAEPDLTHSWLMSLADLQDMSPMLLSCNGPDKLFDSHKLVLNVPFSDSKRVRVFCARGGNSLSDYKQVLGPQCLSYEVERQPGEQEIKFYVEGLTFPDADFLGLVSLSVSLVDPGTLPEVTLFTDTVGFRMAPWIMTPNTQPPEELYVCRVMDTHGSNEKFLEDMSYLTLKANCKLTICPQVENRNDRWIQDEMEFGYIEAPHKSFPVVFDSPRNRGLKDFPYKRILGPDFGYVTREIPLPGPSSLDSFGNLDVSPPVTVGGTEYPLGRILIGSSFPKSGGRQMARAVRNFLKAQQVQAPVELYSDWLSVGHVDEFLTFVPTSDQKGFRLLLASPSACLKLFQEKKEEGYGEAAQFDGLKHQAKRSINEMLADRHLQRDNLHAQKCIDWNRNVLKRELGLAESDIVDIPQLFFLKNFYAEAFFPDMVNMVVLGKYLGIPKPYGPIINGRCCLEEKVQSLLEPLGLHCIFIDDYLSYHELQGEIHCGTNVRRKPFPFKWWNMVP
Kind of assay: pull-down; GST pull-down: purified His-tagged AKT2 (full length or truncated) incubated with GST-tagged PAD1 or GST alone. Conditions: both partners purified.

B1: His-AKT2 (kinase domain) (domain or fragment, UniProt P31751 152-481, looked up)
chain: FDYLKLLGKGTFGKVILVREKATGRYYAMKILRKEVIIAKDEVAHTVTESRVLQNTRHPFLTALKYAFQTHDRLCFVMEYANGGELFFHLSRERVFTEERARFYGAEIVSALEYLHSRDVVYRDIKLENLMLDKDGHIKITDFGLCKEGISDGATMKTFCGTPEYLAPEVLEDNDYGRAVDWWGLGVVMYEMMCGRLPFYNQDHERLFELILMEEIRFPRTLSPEAKSLLAGLLKKDPKQRLGGGPSDAKEVMEHRFFLSINWQDVVQKKLLPPFKPQVTSEVDTRYFDDEFTAQSITITPPDRYDSLGLLELDQRTHFPQFSYSASIRE
notes: AKT2 residues 152-481, the truncated variant that the text calls the kinase domain; also called His-tagged AKT2 (152–481 aa); source: purified
For B1, the binding result is given as “binds”.

B2: His-tagged full-length AKT2 (enzyme, UniProt P31751 1-481, looked up)
chain: MNEVSVIKEGWLHKRGEYIKTWRPRYFLLKSDGSFIGYKERPEAPDQTLPPLNNFSVAECQLMKTERPRPNTFVIRCLQWTTVIERTFHVDSPDEREEWMRAIQMVANSLKQRAPGEDPMDYKCGSPSDSSTTEEMEVAVSKARAKVTMNDFDYLKLLGKGTFGKVILVREKATGRYYAMKILRKEVIIAKDEVAHTVTESRVLQNTRHPFLTALKYAFQTHDRLCFVMEYANGGELFFHLSRERVFTEERARFYGAEIVSALEYLHSRDVVYRDIKLENLMLDKDGHIKITDFGLCKEGISDGATMKTFCGTPEYLAPEVLEDNDYGRAVDWWGLGVVMYEMMCGRLPFYNQDHERLFELILMEEIRFPRTLSPEAKSLLAGLLKKDPKQRLGGGPSDAKEVMEHRFFLSINWQDVVQKKLLPPFKPQVTSEVDTRYFDDEFTAQSITITPPDRYDSLGLLELDQRTHFPQFSYSASIRE
notes: AKT2, full length; whether 'human' also covers AKT2 is not clear; also called His-AKT2 (full length); source: purified
For B2, the binding result was “binds”.
